# From the RNAGym collection of RNA variant scans (doi:10.1073/pnas.2313332121)
# B1: TPR t1 (parent)
# chain: GACCAAUCUGCCCUCAGAGCUCGAGAACAUCUUCGGAUGCAGAGGAGGCAGGCUUCGGUGGCGCGAUAGCGCCAACGUCCUCAACCUCCAAUGCAUCCCACCACAUGAUGAUGCCUGAAGAGCCUUGGUUUUUUG
# Variants of: B1
# Assay: polymerase ribozyme fitness, log enrichment relative to wild type (log ratio); higher = more active; in vitro selection for triplet polymerase activity
# In short: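 Mutant libraries of each subunit of a heterodimeric triplet polymerase ribozyme were built by PCR and transcribed. Each library went through one round of in vitro selection in triplicate: annealing with biotinylated primer, partner subunit and triplets, frozen incubation at −7 °C, gel excision of extended constructs, streptavidin-bead capture and RT-PCR. Input and output libraries were Illumina-sequenced; only genotypes with ≥10 input reads and ≥1 read per output were kept. Fitness is log2(genotype enrichment/wild-type enrichment), using inverse-variance-weighted replicate averages.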
row,Variant,polymerase ribozyme fitness (log ratio)
1,C12U G69A,-2
2,U14A C49U G52U C76A,-4.51
3,U116G C123A,-3.25
4,G17U A24G U32C G61C G117C,-6.76
5,A37U G48A C97U G110U U125C,-6.59
6,C40A G48U,-1.61
7,U21A G69A U112A,-3
8,C11A A41U G71U C72U A100U A103G C115A,-6.78
9,C98U C102A,-5.43
10,A5G A41G A50U C72U A75U G93A U112A G113C,-3.59
11,A41U G113A,-1.81
12,C85A U116C,-2.08
13,A6U C124A,1.49
14,G36U G39A C53A C94G C124G G127C,-2.11
15,U21A C56U,-0.334
16,C3U A27U G52U C72U C76U C85U U116G C124U U129C,-7.12
17,G60A A74U U92A C104U U133A,-2.03
18,A24G G36U C56U C101U,-3.37
19,C56G G57A G61C A118G,-4.8
20,C22A C31G G60U U96A,-6.4
21,C88U G120U U132C,0.106
22,C13U G48A C56A G71A A90G,-4.36
23,G10A U133G,-0.322
24,C70U U131C,0.366

row,Variant,polymerase ribozyme fitness (log ratio)
1,A41C C114G,-1.19
2,C53U C124U,1.92
3,A37G C64A,-6.74
4,C13A G42A G77U U131C,-3.87
5,G44C C56U C79A C101U,-2.56
6,C12G C20A C49A,-2.49
7,C94A G110A,-2.19
8,G63U A108G,-3.13
9,C56U U131G,0.127
10,G63A A119G G127U,0.478
11,G51A C56G C124U,-1.06
12,G44U U54G C76A,-1.81
13,A2U C49U,-3.77
14,C22U A37U G69U U78C G110U C115A C124G,-3.86
15,G44U C72U U96A U106G G117U A119U,-6.08
16,U9G C12U C13G G47C C56U,-1.38
17,U9C A27G C56A U92A,-3.57
18,U54A U55A G61A A74G,-1.53
19,G51A C88U,-2.93
20,G113A A118U,-2.67
21,G48U C62A,-1.81
22,G60U A118U,-0.552
23,C3A U92A C114U,-4.76
24,C8U C124A,2.27

row,Variant,polymerase ribozyme fitness (log ratio)
1,G10U A37U G52A G77C G120U,0.713
2,G47U C115A,-2.9
3,A27C U112C G120C U126C U131A,-3.22
4,A27G U78C,-2.35
5,A18U C98U A111C,-4.18
6,C62G C72U,-2.53
7,A5U G113C U125G U132A,-1.99
8,C62U U87A A121U,2.07
9,G10A C53A,-0.00777
10,A27G G52A C79U,-2.15
11,U32C G71C C79G U81C G113A,-3.36
12,G52A G93A,-0.652
13,A41U,-1.14
14,U54C G71C A91U U116C,-5.63
15,C49U C104U C124A,1.02
16,C12U A91U,-1.85
17,G57C C97G,-4.65
18,G17A C88U U133A,-3.95
19,C12U U21G C88U,-2.37
20,G42A C72G C88G,-3.92
21,G42U C124U,-0.586
22,C56A G71A A100U,-5.55
23,A37G C70U,-0.719
24,C11A G39U C86U C104U G110A,-2.77

row,Variant,polymerase ribozyme fitness (log ratio)
1,C15A G63A,-2.56
2,A18C A37C U112C,-1.3
3,U14A G120A,-0.235
4,G42C C70A,-4.99
5,G47U G61C U126G,-4.45
6,C56G C89G U96A,-2.31
7,C49U G107A G120C U130G,-6.54
8,C13U G63C,-0.36
9,C8G C11U C82A U112A,0.802
10,U33G C70G G113U,-6.56
11,A43U G52U A68G,-4.56
12,C11U G17A C82A,-4.52
13,C80U C97U,-0.856
14,A41U C53A C115A,-1.03
15,A2U A5U A27G C53G U87G,-4.56
16,A2C A16G C49A U55G G120C C124U,-1.14
17,A84U G128A,-1.72
18,A43C U54A,-2.54
19,G25A C62A C86U C102U G120C,-7.36
20,C20U C72G A91G C101A C114G,-2.36
21,U30C C72A,-2.24
22,C4G U106C C115G,-4.76
23,C49G U129C,-0.4
24,A37U A46U U131G,-2.61

row,Variant,polymerase ribozyme fitness (log ratio)
1,A29G U55G G63A U131C U133G,-2.37
2,U7G C88U,-0.443
3,C56U G71U,-1.85
4,C88U G110C,-3.92
5,C88G G120C,-0.00486
6,G17A C115U U125A,0.421
7,U78G G113A C124G,-0.667
8,A5C C11G G36U G44A C56A U112A,-1.22
9,G51U G71C,-5.37
10,G10A A16C A50G C101A,-2.99
11,A46U G63C U112C G117C A121U,-3.75
12,U87A C115U,-0.739
13,C86A A90C G135U,-2.98
14,C102A C124U,0.448
15,U59A C123G G127A,0.53
16,U9C U54A C101U,0.158
17,C28U C56U C101U G120U,-2.65
18,A46U G48A,-2.28
19,G61A C98U,-0.37
20,A24G C72U,-1.6
21,A2G C4U C79A C115A,-5.2
22,G48A C62A C73U,-3.55
23,C13G G127A,-2.49
24,G60U C79G C114U,-4.12

row,Variant,polymerase ribozyme fitness (log ratio)
1,U112A G128C,-2.66
2,C8G C115A,0.863
3,A26G C49A U55C C62U G63A A83C U109A G113A,-6.66
4,C53U U78G,-0.118
5,A29G C70G G120A,-2.72
6,U14A C79U G117U,-5.29
7,A50U G52C G77U U130C,-3.17
8,C99U G110U A121G,-5.37
9,A37C G48C U54C G113A,-2.76
10,A84U U130C,0.517
11,G19A C70U C76G U81C,-4.57
12,G58C G63C G128A,-1.77
13,C56A G61A U92C,-4.04
14,C15A G19A A50C A74G C102A C104A A121U U125G,-6.51
15,C40U C64U C73G G122A,-5.15
16,C11G G36U G63A C98G,-6.37
17,G42U C62U C64U A84G,-4.19
18,G69U U78G C79A U116A U129G,-5.04
19,G58C G77A C97U,0.13
20,G10A C70G,-2.45
21,C70U U112C,0.987
22,G47C A111U,-4.54
23,G63U A90C C101A,-4.63
24,U14A U32C U87A C101A,-3.54

row,Variant,polymerase ribozyme fitness (log ratio)
1,A29U G35A C56U C72U U96A C98G C115G,-7.16
2,G19A C70A C94U,-5.61
3,A46U C82U,-1.14
4,C20U C22G G47A C72U C73U C101G A119G G122U,-6.75
5,C53U C86G C89G C97U C124U,-1.92
6,C4G C12U C97A U112C,-2.59
7,G10U C79A,-0.723
8,A91G A100C A111U A121G,-3.81
9,G52C C72A,-1.99
10,C12U A18U G47C U130A,-4.44
11,C12A G48U C53A C101U G113C G120A,-3.38
12,G63C G93A,-1.12
13,A29U A43G G61U G113A C123A U126A U134C,-3.47
14,G39U C53G C123U,1.06
15,C8G C13A G52C U92A,-3.15
16,U9G U59G C88A A118U,0.424
17,A2C G45A C53A,-1.45
18,G36U G61A G117U,-5.19
19,C12U A29G C73G U92C C94A,-5.22
20,A68U U112A,-5.84
21,C8A C53U C56A A75G,0.188
22,U9G G48U G61U G135U,-1.68
23,C40A U78A C79U U109A,-6.14
